We go through 1 substance from patent publication US20170183403A1.

The target in this assay is T1, Reference peptide no. 48.
T1 sequence (peptide): PKLTRMLTFKFAMPK
Put plainly: peptide microarray (RepliTope), Ala mutagenesis set.

As for NARA1 (antibody), the signal intensity after subtraction of control signal amounted to 6200 AU.
